T1: human scCD3εγ (scCD3εγ_Avi-Bio) (human, biotin on the C-terminal Avi-tag (in vitro, BirA) where the biotinylated form was used)
T1 construct: Used for all SPR and HTRF results on human CD3; also called recombinant human CD3; human CD3
T1 chain: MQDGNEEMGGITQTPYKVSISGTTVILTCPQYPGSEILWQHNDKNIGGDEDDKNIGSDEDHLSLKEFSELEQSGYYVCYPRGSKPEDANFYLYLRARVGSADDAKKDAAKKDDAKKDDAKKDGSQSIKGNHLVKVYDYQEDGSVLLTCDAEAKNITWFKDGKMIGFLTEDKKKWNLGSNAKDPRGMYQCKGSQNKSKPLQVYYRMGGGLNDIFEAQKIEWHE

T2: biotinylated extracellular domain of human CD123 (SEQ ID NO: 88), Fc and Avi tagged (human, UniProt P26951 19-303, biotinylated with BirA-GST (Avi tag))
T2 construct: also called hCD123
T2 sequence: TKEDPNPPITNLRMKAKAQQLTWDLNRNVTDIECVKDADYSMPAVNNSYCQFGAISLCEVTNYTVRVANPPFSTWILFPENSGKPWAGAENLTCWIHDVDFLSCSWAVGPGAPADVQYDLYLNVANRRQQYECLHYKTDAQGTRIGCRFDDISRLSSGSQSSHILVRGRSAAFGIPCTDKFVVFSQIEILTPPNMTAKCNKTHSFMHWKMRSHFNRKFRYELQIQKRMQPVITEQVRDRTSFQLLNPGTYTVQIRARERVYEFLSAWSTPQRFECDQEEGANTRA

T3: extracellular domain of human CD70 (SEQ ID NO: 89), hCD70-Fc-trimer, ACRO Biosystems (human, UniProt P32970 52-193, chemically biotinylated where the biotinylated form was used)
T3 construct: also called human CD70-Fc-trimer; Bio.CD70
T3 sequence: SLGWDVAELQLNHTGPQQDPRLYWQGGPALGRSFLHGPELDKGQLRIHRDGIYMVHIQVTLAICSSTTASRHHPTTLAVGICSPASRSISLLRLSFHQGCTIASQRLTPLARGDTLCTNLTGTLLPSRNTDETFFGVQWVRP


Tests used:
[1] = molecular target: T4, human CD3 on primary human pan-T cells (human, UniProt P07766 23-207; P09693 23-182; P04234 22-171; P20963 22-164); assay: Mirrorball cytometry on primary human pan-T cells, 600 µM HSA
T4 construct: whole, on cells; Native complex on T cells isolated from PBMC; also called CD3 on Pan-T cells
Method: The determination of T cell binding was performed with primary human T cells using Mirrorball laser scanning imaging cytometry. Therefore, primary T cells were isolated from human peripheral blood mononuclear cells (PBMCs) using a pan-T cell purification kit (Miltenyi Biotec). A titration of DARPin® protein #27, DARPin® protein #28 and DARPin® protein #29 and DARPin® protein #30 were incubated with 50′000 pan-T cells per well in presence of 600 μM human serum albumin (to mimic physiological serum concentration) for 30 minutes at 4° C. Two benchmark T-cell engagers, AMG330 and flotetuzumab were applied as controls, targeting CD33 or CD123. After washing, CD3 binding was detected by 1:100-diluted anti-penta-His Alexa Fluor 488 antibody (Qiagen). After 30 min incubation at 4° C., cells were washed and resuspended in Cytofix fixation buffer (BD Biosciences) and counterstained by 5 μM DRAQ5 (Abcam) for 15 min at RT. Median of mean fluorescence intensities of Alexa Fluor 488 binding on far-red counterstained cells were measured by Mirrorball using Cellista software (SPT Labtech) and data was plotted using GraphPad Prism 8.

[2] = molecular target: T1, human scCD3εγ (scCD3εγ_Avi-Bio); assay: SPR (ProteOn), DARPin on GLC chip, scCD3εγ as analyte
Method: Similarly, the binding affinities of two purified ankyrin repeat proteins on recombinant human CD3 target were analyzed as described before. Briefly, DARPin® protein #53, DARPin® protein #54 in NaOAc pH 4.5 was coated on a GLC chip (BioRad) to a level of around 790-1500 resonance units (RU). The interaction of ankyrin repeat protein and human CD3 was then measured by injecting 300 μl running buffer (PBS, pH 7.4 containing 0.005% Tween 20®) containing serial dilutions of human scCD3εγ (56.4 μM), was diluted in PBST (PBS, pH 7.4 containing 0.005% Tween 20®) and covering a concentration range between 300 nM and 19 nM for multi-trace SPR measurements, followed by a running buffer flow for at least 10 minutes at a constant flow rate of 60 μl/min (off-rate measurement).
The regeneration was performed using 30 μl of 10 mM Glycine pH 2. The signals (i.e. resonance unit (RU) values) of the interspots and a reference injection (i.e. injection of running buffer only) were subtracted from the RU traces obtained after injection of CD3 (double-referencing). Binding parameters (KD, on-rate, off-rate) against CD3 were determined by using a standard Langmuir fit model.

[3] = molecular target: T5, biotinylated extracellular domain of human CD33 (SEQ ID NO: 87), Fc and Avi tagged (human, UniProt P20138 18-259, biotinylated with BirA-GST (Avi tag)); assay: SPR (ProteOn XPR36), target on GLC chip, DARPin as analyte
T5 construct: also called hCD33; human target hCD33

[4] = molecular target: T2, biotinylated extracellular domain of …; assay: as above
[5] = molecular target: T3, extracellular domain of human CD70 (SEQ …); assay: as above
human serum albumin = molecular target: T6, human serum albumin (human, UniProt P02768 25-609); assay: as above
T6 construct: also called HSA; SA
T6 sequence (P02768 25-609 limits assumed): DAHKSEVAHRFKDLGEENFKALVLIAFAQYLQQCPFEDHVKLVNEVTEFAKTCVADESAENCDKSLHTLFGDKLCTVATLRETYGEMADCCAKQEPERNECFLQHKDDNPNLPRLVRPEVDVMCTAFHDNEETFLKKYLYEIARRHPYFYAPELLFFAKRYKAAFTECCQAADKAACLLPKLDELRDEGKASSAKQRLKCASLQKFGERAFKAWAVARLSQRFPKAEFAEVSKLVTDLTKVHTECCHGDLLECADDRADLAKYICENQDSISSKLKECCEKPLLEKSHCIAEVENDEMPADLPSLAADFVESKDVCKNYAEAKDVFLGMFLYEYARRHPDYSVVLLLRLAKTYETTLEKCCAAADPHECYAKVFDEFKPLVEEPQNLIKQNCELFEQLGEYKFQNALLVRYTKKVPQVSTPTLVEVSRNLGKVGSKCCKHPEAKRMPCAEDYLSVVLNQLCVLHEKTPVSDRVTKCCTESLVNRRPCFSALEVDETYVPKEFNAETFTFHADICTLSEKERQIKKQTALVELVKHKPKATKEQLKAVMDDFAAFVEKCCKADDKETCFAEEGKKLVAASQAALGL

T4 sequence (P07766 23-207, chain 1 of 4): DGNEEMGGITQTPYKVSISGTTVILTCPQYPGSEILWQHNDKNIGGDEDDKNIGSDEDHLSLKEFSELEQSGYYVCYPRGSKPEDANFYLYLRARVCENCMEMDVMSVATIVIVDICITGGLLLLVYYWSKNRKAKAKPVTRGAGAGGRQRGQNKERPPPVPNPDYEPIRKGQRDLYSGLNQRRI
T4 sequence (P09693 23-182, chain 2 of 4): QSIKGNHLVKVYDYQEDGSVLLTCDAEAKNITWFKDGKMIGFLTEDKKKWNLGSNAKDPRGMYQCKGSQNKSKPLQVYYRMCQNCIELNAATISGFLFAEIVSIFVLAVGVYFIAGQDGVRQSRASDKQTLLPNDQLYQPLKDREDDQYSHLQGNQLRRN
T4 sequence (P04234 22-171, chain 3 of 4): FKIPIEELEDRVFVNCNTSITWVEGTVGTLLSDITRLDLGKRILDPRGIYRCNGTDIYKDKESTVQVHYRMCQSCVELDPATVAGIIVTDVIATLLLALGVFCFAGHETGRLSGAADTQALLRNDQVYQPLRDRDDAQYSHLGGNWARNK
T4 sequence (P20963 22-164, chain 4 of 4): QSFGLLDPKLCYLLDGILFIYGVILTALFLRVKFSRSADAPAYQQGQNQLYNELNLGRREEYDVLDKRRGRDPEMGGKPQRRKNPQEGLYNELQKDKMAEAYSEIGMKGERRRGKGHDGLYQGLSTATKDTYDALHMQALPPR
T5 sequence (P20138 18-259 R69G): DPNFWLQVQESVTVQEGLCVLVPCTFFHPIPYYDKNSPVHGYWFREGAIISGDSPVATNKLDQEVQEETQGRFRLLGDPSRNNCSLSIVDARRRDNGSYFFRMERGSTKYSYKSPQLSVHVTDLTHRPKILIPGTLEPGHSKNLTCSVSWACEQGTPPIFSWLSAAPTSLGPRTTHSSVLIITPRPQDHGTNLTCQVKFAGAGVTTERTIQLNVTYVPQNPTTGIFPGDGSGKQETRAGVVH

Binder | EC50 [1] | Kd [2] | koff [2] | kon [2] | Kd [3] | Kd [4] | Kd [5] | Kd (human serum albumin)
DARPin® protein #30 (designed binder, CD70-CD123-CD33-CD3; not shown: His-tag implied by anti-penta-His detection) DLGYKLLQAAYDGQLDEVRILLKAGADVNAKDSRGQTPLHYAASIGHLEIVEVLLKAGADVNAKDDHGWTPLHLAAWSGHLEIVEVLLKAGADVNAQDQEGTTPADLAAVQGHQDIAEVLQKAAGSPTPTPTTPTPTPTTPTPTPTGSDLGKKLLEAALEGQDDEVRELLKAGADVNAKDQEGYTPLHLAAALGHLEIVEVLLKAGADVNAKDSIGRTPLHLAAYKGHLEIVEVLLKAGADVNAQDLLGETPADLAAEQGHEDIAEVLQKAAGSPTPTPTTPTPTPTTPTPTPTGSDLGVKLLRAAFHGQDDEVRILLAAGADVNAKDTDGETPLHYAAQFGHLEIVEVLLKAGADVNAKDAYGATPLHWAAWHGHLEIVEVLLKAGADVNAQDVSGATPADLAAKVGHEDIAEVLQKAAGSPTPTPTTPTPTPTTPTPTPTGSDLGQKLLEAAWAGQDDEVRELLKAGADVNAKNSRGWTPLHTAAQTGHLEIFEVLLKAGADVNAKDDKGVTPLHLAAALGHLEIVEVLLKAGADVNAQDSWGTTPADLAAKYGHEDIAEVLQKAA | 1.8 nM | – | – | – | – | – | – | –
DARPin® protein #54 (designed binder, HSA-HSA-CD70-CD123-CD33-CD3) MRGSHHHHHHDLGKKLLEAARAGQDDEVRELLKAGADVNAKDYFSHTPLHLAARNGHLKIVEVLLKAGADVNAKDFAGKTPLHLAAADGHLEIVEVLLKAGADVNAQDIFGKTPADIAADAGHEDIAEVLQKAAGSPTPTPTTPTPTPTTPTPTPTGSDLGKKLLEAARAGQDDEVRELLKAGADVNAKDYFSHTPLHLAARNGHLKIVEVLLKAGADVNAKDFAGKTPLHLAAADGHLEIVEVLLKAGADVNAQDIFGKTPADIAADAGHEDIAEVLQKAAGSPTPTPTTPTPTPTTPTPTPTGSDLGYKLLQAAYDGQLDEVRILLKAGADVNAKDSRGQTPLHYAASIGHLEIVEVLLKAGADVNAKDDHGWTPLHLAAWSGHLEIVEVLLKAGADVNAQDQEGTTPADLAAVQGHQDIAEVLQKAAGSPTPTPTTPTPTPTTPTPTPTGSDLGKKLLEAALEGQLDEVRELLKAGADVNAKDQEGYTPLHLAAALGHLEIVEVLLKAGADVNAKDSIGRTPLHLAAYKGHLEIVEVLLKAGADVNAQDLLGETPADLAAEQGHQDIAEVLQKAAGSPTPTPTTPTPTPTTPTPTPTGSDLGVKLLRAAVHGQLDEVRILLKAGADVNAKDTDGETPLHYAAQFGHLEIVEVLLKAGADVNAKDAYGATPLHWAAWHGHLEIVEVLLKAGADVNAQDVSGATPADLAAKVGHQDIAEVLQKAAGSPTPTPTTPTPTPTTPTPTPTGSDLGQKLLEAAWAGQDDEVRELLKAGADVNAKNSRGWTPLHTAAQTGHLEIFEVLLKAGADVNAKDDKGVTPLHLAAALGHLEIVEVLLKAGADVNAQDSWGTTPADLAAKYGHEDIAEVLQKAA | – | 129 nM | 0.0067 s⁻¹ | 52000 M⁻¹ s⁻¹ | 8.2 nM | 33 nM | 0.61 nM | 1.2 nM

Next, values leading:

EC50 [1] | Kd [2] | koff [2] | kon [2] | Kd [3] | Kd [4] | Kd [5] | Kd (human serum albumin) | Binder
1.41 nM | – | – | – | – | – | – | – | DARPin® protein #28 (designed binder, CD70-CD33-CD3; not shown: His-tag implied by anti-penta-His detection) DLGYKLLQAAYDGQLDEVRILLKAGADVNAKDSRGQTPLHYAASIGHLEIVEVLLKAGADVNAKDDHGWTPLHLAAWSGHLEIVEVLLKAGADVNAQDQEGTTPADLAAVQGHQDIAEVLQKAAGSPTPTPTTPTPTPTTPTPTPTGSDLGWKLLLAASRGQDDEVRILLAAGADVNAKDIDEGYTPLHIAAYYGHLEIVEVLLKAGADVNAKDRYGKTPLHLAAISGHEDIAEVLLKAGADVNAQDDKGDTPADLAADYGHEDIAEVLQKAAGSPTPTPTTPTPTPTTPTPTPTGSDLGQKLLEAAWAGQDDEVRELLKAGADVNAKNSRGWTPLHTAAQTGHLEIFEVLLKAGADVNAKDDKGVTPLHLAAALGHLEIVEVLLKAGADVNAQDSWGTTPADLAAKYGHEDIAEVLQKAA
– | 139 nM | 0.0065 s⁻¹ | 48000 M⁻¹ s⁻¹ | 12 nM | 8 nM | 0.7 nM | 24 nM | DARPin® protein #53 (designed binder, HSA-CD70-CD123-CD33-CD3) MRGSHHHHHHDLGKKLLEAARAGQDDEVRELLKAGADVNAKDYFSHTPLHLAARNGHLKIVEVLLKAGADVNAKDFAGKTPLHLAAADGHLEIVEVLLKAGADVNAQDIFGKTPADIAADAGHEDIAEVLQKAAGSPTPTPTTPTPTPTTPTPTPTGSDLGYKLLQAAYDGQLDEVRILLKAGADVNAKDSRGQTPLHYAASIGHLEIVEVLLKAGADVNAKDDHGWTPLHLAAWSGHLEIVEVLLKAGADVNAQDQEGTTPADLAAVQGHQDIAEVLQKAAGSPTPTPTTPTPTPTTPTPTPTGSDLGKKLLEAALEGQLDEVRELLKAGADVNAKDQEGYTPLHLAAALGHLEIVEVLLKAGADVNAKDSIGRTPLHLAAYKGHLEIVEVLLKAGADVNAQDLLGETPADLAAEQGHQDIAEVLQKAAGSPTPTPTTPTPTPTTPTPTPTGSDLGVKLLRAAVHGQLDEVRILLKAGADVNAKDTDGETPLHYAAQFGHLEIVEVLLKAGADVNAKDAYGATPLHWAAWHGHLEIVEVLLKAGADVNAQDVSGATPADLAAKVGHQDIAEVLQKAAGSPTPTPTTPTPTPTTPTPTPTGSDLGQKLLEAAWAGQDDEVRELLKAGADVNAKNSRGWTPLHTAAQTGHLEIFEVLLKAGADVNAKDDKGVTPLHLAAALGHLEIVEVLLKAGADVNAQDSWGTTPADLAAKYGHEDIAEVLQKAA
